Series [1] in a line: folding stability dG unfold (combined trypsin and chymotrypsin); higher = more stable. In a few lines:
(§1)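 Digests were run with trypsin and chymotrypsin at 11 concentrations in threefold dilutions, plus a no-protease condition, on designed mini-proteins in a PA-tagged cDNA display construct. The mini-proteins were under 80 residues, had no cysteine, and were kept only when AlphaFold2 dimer inter-PAE was above 15. After sequencing, Bayesian fitting of the counts gave K50, from which unfolding free energy was derived against a sequence-predicted unfolded-state K50 and a shared folded-state K50, per protease or combined.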

Series [2] in a line: folding stability dG unfold from trypsin proteolysis; higher = more stable. In a few lines: as §1
A short description of series [3]: folding stability dG unfold from chymotrypsin proteolysis; higher = more stable. In a few lines: as §1

From the supplement of paper PMC12764529 come the findings set out here.

± gives the half width of the 95% confidence interval.

For “SAGGSAGGSAGGSDDPDGKPKPQIPPIKVEPIPIKDPNGWSIEIYYFPWNGMLIISFYNSAGGSAGGSAGGS [r4_305_TrROS]”, the results for the “folding stability dG unfold” value in series [1], in series [2] and in series [3] were 4.26 ± 0.2 kcal/mol, 3.3 ± 0.22 kcal/mol and 4.34 ± 0.12 kcal/mol, respectively.

As for “SAGGSAGGSAGGSDGALIFIIHIKMEMELEPNPDGPPKWDMDWDIEPTWIQIDDPEDFKSAGGSAGGSAGGS [r4_450_TrROS]”, the “folding stability dG unfold” value in series [1] is 2.19 ± 0.21 kcal/mol; in series [2] it was 1.59 ± 0.13 kcal/mol; in series [3] it was 2.48 ± 0.15 kcal/mol.

For the sequence “SAGGSAGGSAGGSDKDPDKMKPKPVFEMEIVTYEWEKDGDGDWEPLSVEVQRIRVYAMDSAGGSAGGSAGGS [r4_288_TrROS]”, the “folding stability dG unfold” value amounted to 4.19 ± 0.19 kcal/mol in series [1], 3.13 ± 0.14 kcal/mol in series [2] and 4.51 ± 0.23 kcal/mol in series [3].

“SAGGSAGGSAGGSGDPNNPVTLLVLDVPSPEPAGTVYYFPDGYVAVNFPSINRTLVFYGSAGGSAGGSAGGS [r4_78_TrMRF]”: the “folding stability dG unfold” value in series [1] came to 1.2 ± 0.17 kcal/mol; in series [2] it was 0.766 ± 0.036 kcal/mol; in series [3], 1.42 ± 0.15 kcal/mol.

For the sequence “SAGGSAGGSAGGSGLSFEIVEEREELLPDGRPRRRIFATLPGGRRLVIDDDGRITIDPDSAGGSAGGSAGGS [r4_111_TrMRF]”, the entries for the “folding stability dG unfold” value in series [1], in series [2] and in series [3] were 0.897 ± 0.25 kcal/mol, 0.45 ± 0.33 kcal/mol and 0.968 ± 0.15 kcal/mol, respectively.

In the case of “SAGGSAGGSAGGSGMVNLPEPIKVTKEEPLPDGSVRYTIEYPDSTITVFKYPDGIKIESSAGGSAGGSAGGS [r4_280_JUSTAS]”, the “folding stability dG unfold” value in series [1] came out at 0.393 ± 0.1 kcal/mol; in series [2], 0.35 ± 0.049 kcal/mol; in series [3], 0.29 ± 0.24 kcal/mol.

Regarding “SAGGSAGGSAGGSGPPKLRLLRRVEVVYDGLVLPPNFPLPPSAPPNLKVFVSLVTLPEGSAGGSAGGSAGGS [r4_436_TrMRF]”, the figures for the “folding stability dG unfold” value in series [1], in series [2] and in series [3] were 2.35 ± 0.43 kcal/mol, 3.11 ± 0.091 kcal/mol and 1.83 ± 0.25 kcal/mol, respectively.

Consider “SAGGSAGGSAGGSGSKEPKYYYRVVVEDDGNPVVRTYAPDEPLPAPANLKVFPFLADEESAGGSAGGSAGGS [r4_107_TrMRF]”, for which the “folding stability dG unfold” value was 0.452 ± 0.25 kcal/mol in series [1], -0.421 ± 0.81 kcal/mol in series [2] and 0.857 ± 0.19 kcal/mol in series [3].

In the case of “SAGGSAGGSAGGSGSSVLVKTTTTLSVAPGATITLPDGTVYTVPAGVPVTVTTWVLVETSAGGSAGGSAGGS [r4_232_JUSTAS]”, the results for the “folding stability dG unfold” value in series [1], in series [2] and in series [3] were 3.38 ± 0.13 kcal/mol, 2.31 ± 0.14 kcal/mol and 4.05 ± 0.092 kcal/mol, respectively.

Regarding “SAGGSAGGSAGGSIEIEITVELEDGYYLRISARFELNEDGSLKLEIKIELIKIEPGQELSAGGSAGGSAGGS [r10_241_TrROS_Hall]”, the “folding stability dG unfold” value in series [1] turned out to be 3.18 ± 0.32 kcal/mol; in series [2], 3.52 ± 0.48 kcal/mol; in series [3] it was 2.27 ± 0.1 kcal/mol.

For “SAGGSAGGSAGGSIEIIVRTPEMAKQMAKRIQKILADQGNPPPLKIEIHVIPPDDLPPWSAGGSAGGSAGGS [r4_472_TrROS]”, the “folding stability dG unfold” value in series [1] was 0.388 ± 0.15 kcal/mol; in series [2] it was -0.0989 ± 0.26 kcal/mol; in series [3], 0.571 ± 0.092 kcal/mol.

In the case of “SAGGSAGGSAGGSILLITTHPKDAEKAAKEIEKILAELDIPPDAKIEVYVVPKEYLPDESAGGSAGGSAGGS [r4_472_TrMRF]”, the “folding stability dG unfold” value was determined as 0.329 ± 0.14 kcal/mol in series [1], 0.323 ± 0.035 kcal/mol in series [2] and 0.176 ± 0.17 kcal/mol in series [3].

For the sequence “SAGGSAGGSAGGSIPPSDVTTEVDPNTPLTTVTYPSGVVVTETFPPDGTSTTTVDTAAGSAGGSAGGSAGGS [r10_170_JUSTAS]”, the “folding stability dG unfold” value in series [1] was determined as 1.56 ± 0.039 kcal/mol; in series [2], 2.01 ± 0.038 kcal/mol; in series [3] it was 1.23 ± 0.028 kcal/mol.

“SAGGSAGGSAGGSITITTEPLPSGGRRVTVTLPGSSVVLELEFSPDETEEEVRAAVEAASAGGSAGGSAGGS [r10_825_JUSTAS]”: the “folding stability dG unfold” value was determined as 1.93 ± 0.09 kcal/mol in series [1], 1.47 ± 0.035 kcal/mol in series [2] and 2.12 ± 0.06 kcal/mol in series [3].

As for “SAGGSAGGSAGGSITITWNPESGTVKIKPPNNKKEIEIPAENMTPSQIIDQAKDNGVEVSAGGSAGGSAGGS [r4_49_TrROS]”, the entries for the “folding stability dG unfold” value in series [1], in series [2] and in series [3] were 0.935 ± 0.17 kcal/mol, -0.0527 ± 0.12 kcal/mol and 1.39 ± 0.1 kcal/mol, respectively.
